Each block holds one molecule with its values, some of them ahead of it.
Experiments:
[1] = target: ED-B domain of human fibronectin, recombinant, with C-terminal six-histidine tag (human) (UniProt P02751); test: ELISA on coated ED-B, Scatchard assay (Beatty et al.)
[2] = target: T1, ED-B domain of human fibronectin, recombinant, with C-terminal six-histidine tag (human, UniProt P02751 1266-1356); test: direct ELISA on coated ED-B, Scatchard analysis (Beatty et al.)
T1 construct: Expressed in E. coli from pET-22b(+) (EcoRI/NotI); residues from the vector between ED-B and the tag are not described; also called EDB antigen; antigen ED-B
T1 sequence (P02751 other isoform, or with tags, fused parts or gaps limits assumed): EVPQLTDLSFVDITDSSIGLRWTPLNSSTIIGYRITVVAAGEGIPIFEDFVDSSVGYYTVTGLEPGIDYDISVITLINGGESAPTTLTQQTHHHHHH

Sequence of ED-B domain of human fibronectin, recombinant, with C-terminal six-histidine tag (human) (P02751 other isoform, or with tags, fused parts or gaps limits assumed): as above

Kd [1]: 6 nM
Molecule: L19-Fc (Fc fusion)

affinity relative to L19 [2]: ~3 fold
B1: A11 antibody (Fc fusion)
chain: EVQLLESGGGLVQPGGSLRLSCAASGFTFSSYAMSWVRQAPGKGLEWVSRISPSGSSTYYADSVKGRFTISRDNSKNTLYLQMNSLRAEDTAVYYCARRMSYFDYWGQGTLVTVSSGGGGSGGGGSGGGGSSQSALTQPASVSGSPGQSITISCSGDSLGIGSNNYVSWYQQHPGKAPKLMIYDDNKRPSGVSNRFSGSKSGNTASLTISGLQAEDEADYYCQSWDGRQPVFGGGTKLTVLG
notes: Assayed as purified Fc-containing antibody from mammalian cells
